Results reported in the supplement of paper PMC9732359.
± gives the uncertainty stated by the source.

Experiment: protein stability index of a GFP-peptide fusion (yeast GPS) (PSI 1-4); higher = more stable; sorted into four equal gates, so the index is relative within each strain
Procedure, shortened: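 For each peptide, the protein stability index sums the read frequency in every gate after multiplying it by the gate number. Read frequencies came from plasmids that were PCR-amplified from each gate and Illumina-sequenced, with reads assigned to strains by barcodes. The gates were four equal bins of GFP/Cherry fluorescence ratio applied to mid-log yeast in leucine-free medium carrying a pooled library of tiled 17-residue yeast protein peptides fused downstream of GFP on a Cherry-expressing plasmid.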

Row | Sequence | protein stability index (doa10∆) | protein stability index (pdr5∆) | protein stability index (san1∆) | protein stability index (ubr1∆)
1 | MASNEVLVLRGTLEGHN [ASC1] | 3.06 ± 0.17 | 2.22 ± 0.16 | 3.24 ± 0.13 | 3.16 ± 0.25
2 | LSEIESLDEILLPANLL [SRP68] | 3.14 ± 0.053 | 3.08 ± 0.052 | 3.02 ± 0.042 | 3.037 ± 0.027
3 | PKGVILYGAPGTGKTLL [RPT2] | 3.67 ± 0.27 | – | – | 3.13 ± 0.22
4 | ARYNWICDPVHKHREAR [RPL15A] | 3.51 ± 0.12 | 2.81 ± 0.13 | 2.98 ± 0.12 | 3.22 ± 0.096
5 | MFQSQSQLQPQPQPQPQ [YDL088C/ASM4] | 2.48 ± 0.056 | 2.49 ± 0.048 | 2.29 ± 0.068 | 2.99 ± 0.04
6 | TGKIVDVVGTLSRNGKP [FAS1] | 3.33 ± 0.15 | 3.6 ± 0.13 | 3.48 ± 0.094 | 3.44 ± 0.071
7 | THLEIEPFTILGAVAGL [RET1] | 1.42 ± 0.041 | 1.91 ± 0.054 | 2.08 ± 0.12 | 2.04 ± 0.048
8 | YRFYEYIYSQETKSWIN [MED1] | 1.7 ± 0.065 | 1.93 ± 0.06 | 1.53 ± 0.11 | 1.82 ± 0.042
9 | YYYYHPMNAPTPAMIPY [DSN1] | 2.14 ± 0.047 | 2.39 ± 0.05 | 2.49 ± 0.066 | 2.46 ± 0.039
10 | KARSPGIAKPNAIQTEV [SIR4] | 3.36 ± 0.067 | 3.35 ± 0.092 | 3.18 ± 0.075 | 3.22 ± 0.066
11 | PDTSNEICDLAYQYVRA [SRB2] | 2.83 ± 0.046 | 2.93 ± 0.04 | 2.95 ± 0.046 | 3 ± 0.041
12 | DAAEEEKEEEAKEESDD [RPP2B] | 2.88 ± 0.3 | 3.22 ± 0.14 | 3.09 ± 0.3 | 3.41 ± 0.078
13 | NQVMMDRKIQGWLGALT [ARP7] | 2.84 ± 0.069 | 3.18 ± 0.052 | 3 ± 0.054 | 2.98 ± 0.044
14 | MLSILEIFKKGYIKNNK [POP6] | 2.63 ± 0.11 | 2.84 ± 0.091 | 3 ± 0.097 | 3.08 ± 0.1
15 | LKYHDFLRKATAFNKTR [RPL16B] | 2.98 ± 0.047 | 3.06 ± 0.054 | 2.77 ± 0.053 | 3.08 ± 0.036
16 | KIKDNKEKIKNNRQLPY [RPT5] | 3.23 ± 0.12 | 3.24 ± 0.16 | 3.18 ± 0.1 | 2.86 ± 0.1
17 | CRNINRKHRNAQFAGRA [DIS3] | 2.54 ± 0.11 | 2.78 ± 0.071 | 2.18 ± 0.22 | 2.92 ± 0.086
18 | TYIKSEITQQEKGLNEL [SMC4] | 1.88 ± 0.066 | 1.7 ± 0.059 | 2.75 ± 0.092 | 1.55 ± 0.051
19 | RRADVKTATVKINKKLN [RPL38] | 1.83 ± 0.058 | 1.84 ± 0.041 | 2.17 ± 0.086 | 1.62 ± 0.039
20 | RKVSGPRALQPSQFGML [RET1] | 2.36 ± 0.089 | 1.67 ± 0.059 | 2.46 ± 0.12 | 2.56 ± 0.09
21 | GGDVVKFQKLLQNSERD [SMC4] | 3.15 ± 0.073 | 3.11 ± 0.049 | 3.06 ± 0.047 | 2.96 ± 0.052
22 | LVSMRYPEDKKTQQNEK [RPN3] | – | – | 3.24 ± 0.039 | 3.12 ± 0.12
23 | PVKALNECIASTSNALK [SNF12] | 2.85 ± 0.056 | 2.8 ± 0.066 | 2.75 ± 0.05 | 2.81 ± 0.051
24 | GRLDRKIEFPLPSEDSR [RPT5] | 3.36 ± 0.15 | 2.91 ± 0.21 | 2.71 ± 0.24 | 3.56 ± 0.12
25 | ESGKVFIGRLPIMLRSK [RPB2] | 2.83 ± 0.1 | 2.67 ± 0.062 | 2.94 ± 0.08 | 2.79 ± 0.058
26 | YQTKKFYDYIKERSIVV [REC8] | 2.49 ± 0.058 | 2.81 ± 0.054 | 2.14 ± 0.058 | 2.72 ± 0.047
